Reference: patent publication US20100260668A1 (published 2010)
“And” between values parts separate entries of the source, which are not always exact repeats. Identical values can stand only once.

Tests used:
[1] = molecular target: T1, DLL4 (DLL4 ECD/His tag, R&D Systems 1506-D4-050) (UniProt Q9NR61 27-529); experiment: Direct bind ELISA on DLL4; DLL4 domain N-term., HC short, LC short
T1 construct: extracellular domain; not shown: His tag

[2] = molecular target: T1, DLL4 (DLL4 ECD/His tag, R&D Systems …); experiment: Direct bind ELISA on DLL4; reference antibody
[3] = molecular target: T1, DLL4 (DLL4 ECD/His tag, R&D Systems …); experiment: Direct bind ELISA on DLL4; DLL4 domain C-term., HC short, LC short
[4] = molecular target: T2, DLL4 ECD/His tag (R&D 1506-D4-050) (UniProt Q9NR61 27-529); experiment: direct bind ELISA, DLL4 on plate; DLL4 VD N-term.; HC Short, LC Long
T2 construct: extracellular domain; Bought antigen coated on the ELISA plate; not shown: His tag

B1: DVD443 (DLL4/VEGF DVD-Ig) (bispecific antibody, human IgG1)
VH: QVQLVQSGAEVKKPGASVKISCKASGYSFTAYYIHWVKQAPGQGLEWIGYISSYNGATNYNQKFKGRVTFTTDTSTSTAYMELRSLRSDDTAVYYCARDYDYDVGMDYWGQGTLVTVSSASTKGPEVQLVESGGGLVQPGGSLRLSCAASGFTISDYWIHWVRQAPGKGLEWVAGITPAGGYTYYADSVKGRFTISADTSKNTAYLQMNSLRAEDTAVYYCARFVFFLPYAMDYWGQGTLVTVSS
VL: DIVMTQSPDSLAVSLGERATISCRASESVDNYGISFMKWFQQKPGQPPKLLIYAASNQGSGVPDRFSGSGSGTDFTLTISSLQAEDVAVYYCQQSKEVPWTFGGGTKVEIKRTVAAPDIQMTQSPSSLSASVGDRVTITCRASQDVSTAVAWYQQKPGKAPKLLIYSASFLYSGVPSRFSGSGSGTDFTLTISSLQPEDFATYYCQQSYTTPPTFGQGTKVEIKR
notes: HC linker short, LC linker short; also called DVD443H; DVD443L
[1]
  EC50: 200 pM

B2: AB072 (anti-DLL4 (seq. 3) parent antibody) (antibody, human IgG1, V domains shown)
VH: EVQLQQSGPELVKPGASVKMSCKASGYTFTSYVINWVKQKPGQGLEWIGLINPYNDGTKYNEKFKVKATLTSDKSSSTAYMELSSLTSEDSAVYYCASYYYGSRYYFDYWGQGTTLTVSS
VL: DIQMTQSSSYLSVSLGGRVTITCKASDHINNWLAWYQQKPGNAPRLLISGATSLETGVPSRFSGSGSGKDYTLSITSLQTEDVATYYCQQYWSIPLTFGAGTKLELKR
notes: also called AB072VH; AB072VL
[2]
  EC50: 63400 pM and 63200 pM

B3: DVD466 (VEGF/DLL4 DVD-Ig) (bispecific antibody, human IgG1)
VH: EVQLVESGGGLVQPGGSLRLSCAASGFTISDYWIHWVRQAPGKGLEWVAGITPAGGYTYYADSVKGRFTISADTSKNTAYLQMNSLRAEDTAVYYCARFVFFLPYAMDYWGQGTLVTVSSASTKGPEVQLVESGGGLVQPGGSLRLSCAASGFTFTDNWISWVRQAPGKGLEWVGYISPNSGFTYYADSVKGRFTISADTSKNTAYLQMNSLRAEDTAVYYCARDNFGGYFDYWGQGTLVTVSS
VL: DIQMTQSPSSLSASVGDRVTITCRASQDVSTAVAWYQQKPGKAPKLLIYSASFLYSGVPSRFSGSGSGTDFTLTISSLQPEDFATYYCQQSYTTPPTFGQGTKVEIKRTVAAPDIQMTQSPSSLSASVGDRVTITCRASQDVSTAVAWYQQKPGKAPKLLIYSASFLYSGVPSRFSGSGSGTDFTLTISSLQPEDFATTYYCQQSYTGTVTFGQGTKVEIKR
notes: HC linker short, LC linker short; also called DVD466H; DVD466L
[3]
  EC50: 19800 pM

B4: AB069 (anti-DLL4 (seq. 2) parent antibody) (antibody, human IgG1, V domains shown)
VH: QVQLVQSGAEVKKPGASVKISCKASGYSFTAYYIHWVKQAPGQGLEWIGYISSYNGATNYNQKFKGRVTFTTDTSTSTAYMELRSLRSDDTAVYYCARDYDYDVGMDYWGQGTLVTVSS
VL: DIVMTQSPDSLAVSLGERATISCRASESVDNYGISFMKWFQQKPGQPPKLLIYAASNQGSGVPDRFSGSGSGTDFTLTISSLQAEDVAVYYCQQSKEVPWTFGGGTKVEIKR
notes: also called AB069VH; AB069VL
[2]
  EC50: 230 pM and 240 pM

B5: DVD489 (DLL4/VEGF DVD-Ig) (bispecific antibody, human IgG1)
VH: EVQLQQSGPELVKPGASVKMSCKASGYTFTSYVINWVKQKPGQGLEWIGLINPYNDGTKYNEKFKVKATLTSDKSSSTAYMELSSLTSEDSAVYYCASYYYGSRYYFDYWGQGTTLTVSSASTKGPEVQLVESGGGLVQPGGSLRLSCAASGFTISDYWIHWVRQAPGKGLEWVAGITPAGGYTYYADSVKGRFTISADTSKNTAYLQMNSLRAEDTAVYYCARFVFFLPYAMDYWGQGTLVTVSS
VL: DIQMTQSSSYLSVSLGGRVTITCKASDHINNWLAWYQQKPGNAPRLLISGATSLETGVPSRFSGSGSGKDYTLSITSLQTEDVATYYCQQYWSIPLTFGAGTKLELKRTVAAPDIQMTQSPSSLSASVGDRVTITCRASQDVSTAVAWYQQKPGKAPKLLIYSASFLYSGVPSRFSGSGSGTDFTLTISSLQPEDFATYYCQQSYTTPPTFGQGTKVEIKR
notes: HC linker short, LC linker short; also called DVD489H; DVD489L
[1]
  EC50: 620 pM

B6: AB015 (anti-DLL-4 (seq. 1) parent antibody) (antibody, human IgG1, V domains shown)
VH: EVQLVESGGGLVQPGGSLRLSCAASGFTFTDNWISWVRQAPGKGLEWVGYISPNSGFTYYADSVKGRFTISADTSKNTAYLQMNSLRAEDTAVYYCARDNFGGYFDYWGQGTLVTVSS
VL: DIQMTQSPSSLSASVGDRVTITCRASQDVSTAVAWYQQKPGKAPKLLIYSASFLYSGVPSRFSGSGSGTDFTLTISSLQPEDFATTYYCQQSYTGTVTFGQGTKVEIKR
notes: also called AB015VH; AB015VL
[2]
  EC50: 600 pM and 580 pM

B7: DVD533 (bispecific antibody, human IgG1, kappa, lambda, L234A L235A)
heavy: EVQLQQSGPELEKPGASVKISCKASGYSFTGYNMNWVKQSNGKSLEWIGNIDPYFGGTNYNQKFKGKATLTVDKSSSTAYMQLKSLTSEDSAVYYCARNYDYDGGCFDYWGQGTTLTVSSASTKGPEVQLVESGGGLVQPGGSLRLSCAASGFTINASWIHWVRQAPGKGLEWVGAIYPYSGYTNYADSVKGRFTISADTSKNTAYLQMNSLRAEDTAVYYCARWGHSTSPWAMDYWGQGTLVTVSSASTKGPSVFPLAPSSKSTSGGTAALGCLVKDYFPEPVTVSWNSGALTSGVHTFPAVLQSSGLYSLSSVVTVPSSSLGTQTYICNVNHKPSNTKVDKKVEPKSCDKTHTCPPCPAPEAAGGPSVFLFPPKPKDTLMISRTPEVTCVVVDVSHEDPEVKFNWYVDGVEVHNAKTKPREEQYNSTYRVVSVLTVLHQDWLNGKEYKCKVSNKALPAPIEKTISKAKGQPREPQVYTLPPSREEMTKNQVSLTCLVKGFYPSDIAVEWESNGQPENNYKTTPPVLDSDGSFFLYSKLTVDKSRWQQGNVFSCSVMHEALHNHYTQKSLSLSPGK
light: QAVVTQESALTTSPGETVTLTCRSSTGAVTTSNYANWVQEKPDHLFTGLIGGTNNRAPGVPARFSGSLIGDKAALTITGAQTEDEAIYFCALWYSNHWVFGGGTKLTVLGQPKAAPSVTLFPPDIQMTQSPSSLSASVGDRVTITCRASQVIRRSLAWYQQKPGKAPKLLIYAASNLASGVPSRFSGSGSGTDFTLTISSLQPEDFATYYCQQSNTSPLTFGQGTKVEIKRTVAAPSVFIFPPSDEQLKSGTASVVCLLNNFYPREAKVQWKVDNALQSGNSQESVTEQDSKDSTYSLSSTLTLSKADYEKHKVYACEVTHQGLSSPVTKSFNRGEC
notes: DVD-Ig; outer AB073 (DLL4), inner AB071 (VEGF); HC short, LC long linker; also called DVD533H; DVD533L
[4]
  EC50: 250 pM

B8: DVD444 (VEGF/DLL4 DVD-Ig) (bispecific antibody, human IgG1)
VH: EVQLVESGGGLVQPGGSLRLSCAASGFTISDYWIHWVRQAPGKGLEWVAGITPAGGYTYYADSVKGRFTISADTSKNTAYLQMNSLRAEDTAVYYCARFVFFLPYAMDYWGQGTLVTVSSASTKGPQVQLVQSGAEVKKPGASVKISCKASGYSFTAYYIHWVKQAPGQGLEWIGYISSYNGATNYNQKFKGRVTFTTDTSTSTAYMELRSLRSDDTAVYYCARDYDYDVGMDYWGQGTLVTVSS
VL: DIQMTQSPSSLSASVGDRVTITCRASQDVSTAVAWYQQKPGKAPKLLIYSASFLYSGVPSRFSGSGSGTDFTLTISSLQPEDFATYYCQQSYTTPPTFGQGTKVEIKRTVAAPDIVMTQSPDSLAVSLGERATISCRASESVDNYGISFMKWFQQKPGQPPKLLIYAASNQGSGVPDRFSGSGSGTDFTLTISSLQAEDVAVYYCQQSKEVPWTFGGGTKVEIKR
notes: HC linker short, LC linker short; also called DVD444H; DVD444L
[3]
  EC50: 30500 pM

B9: DVD509 (bispecific antibody, human IgG1, kappa)
heavy: not shown
light: DIQMTQSSSYLSVSLGGRVTITCKASDHINNWLAWYQQKPGNAPRLLISGATSLETGVPSRFSGSGSGKDYTLSITSLQTEDVATYYCQQYWSIPLTFGAGTKLELKRTVAAPSVFIFPPDIQMTQSPSSLSASVGDRVTITCRASQVIRRSLAWYQQKPGKAPKLLIYAASNLASGVPSRFSGSGSGTDFTLTISSLQPEDFATYYCQQSNTSPLTFGQGTKVEIKRTVAAPSVFIFPPSDEQLKSGTASVVCLLNNFYPREAKVQWKVDNALQSGNSQESVTEQDSKDSTYSLSSTLTLSKADYEKHKVYACEVTHQGLSSPVTKSFNRGEC
notes: DVD-Ig; outer AB072 (DLL4), inner AB071 (VEGF); HC short, LC long linker; also called DVD509H; DVD509L
[4]
  EC50: 210 pM

B10: DVD485 (bispecific antibody, human IgG1, kappa)
heavy: not shown
light: DIQMTQSPSSLSASVGDRVTITCRASQDVSTAVAWYQQKPGKAPKLLIYSASFLYSGVPSRFSGSGSGTDFTLTISSLQPEDFATTYYCQQSYTGTVTFGQGTKVEIKRTVAAPSVFIFPPDIQMTQSPSSLSASVGDRVTITCRASQVIRRSLAWYQQKPGKAPKLLIYAASNLASGVPSRFSGSGSGTDFTLTISSLQPEDFATYYCQQSNTSPLTFGQGTKVEIKRTVAAPSVFIFPPSDEQLKSGTASVVCLLNNFYPREAKVQWKVDNALQSGNSQESVTEQDSKDSTYSLSSTLTLSKADYEKHKVYACEVTHQGLSSPVTKSFNRGEC
notes: DVD-Ig; outer AB015 (DLL4), inner AB071 (VEGF); HC short, LC long linker; also called DVD485H; DVD485L
[4]
  EC50: 1410 pM

B11: DVD465 (DLL4/VEGF DVD-Ig) (bispecific antibody, human IgG1)
VH: EVQLVESGGGLVQPGGSLRLSCAASGFTFTDNWISWVRQAPGKGLEWVGYISPNSGFTYYADSVKGRFTISADTSKNTAYLQMNSLRAEDTAVYYCARDNFGGYFDYWGQGTLVTVSSASTKGPEVQLVESGGGLVQPGGSLRLSCAASGFTISDYWIHWVRQAPGKGLEWVAGITPAGGYTYYADSVKGRFTISADTSKNTAYLQMNSLRAEDTAVYYCARFVFFLPYAMDYWGQGTLVTVSS
VL: DIQMTQSPSSLSASVGDRVTITCRASQDVSTAVAWYQQKPGKAPKLLIYSASFLYSGVPSRFSGSGSGTDFTLTISSLQPEDFATTYYCQQSYTGTVTFGQGTKVEIKRTVAAPDIQMTQSPSSLSASVGDRVTITCRASQDVSTAVAWYQQKPGKAPKLLIYSASFLYSGVPSRFSGSGSGTDFTLTISSLQPEDFATYYCQQSYTTPPTFGQGTKVEIKR
notes: HC linker short, LC linker short; also called DVD465H; DVD465L
[1]
  EC50: 570 pM

B12: DVD513 (DLL4/VEGF DVD-Ig) (bispecific antibody, human IgG1)
VH: EVQLQQSGPELEKPGASVKISCKASGYSFTGYNMNWVKQSNGKSLEWIGNIDPYFGGTNYNQKFKGKATLTVDKSSSTAYMQLKSLTSEDSAVYYCARNYDYDGGCFDYWGQGTTLTVSSASTKGPEVQLVESGGGLVQPGGSLRLSCAASGFTISDYWIHWVRQAPGKGLEWVAGITPAGGYTYYADSVKGRFTISADTSKNTAYLQMNSLRAEDTAVYYCARFVFFLPYAMDYWGQGTLVTVSS
VL: QAVVTQESALTTSPGETVTLTCRSSTGAVTTSNYANWVQEKPDHLFTGLIGGTNNRAPGVPARFSGSLIGDKAALTITGAQTEDEAIYFCALWYSNHWVFGGGTKLTVLGQPKAAPDIQMTQSPSSLSASVGDRVTITCRASQDVSTAVAWYQQKPGKAPKLLIYSASFLYSGVPSRFSGSGSGTDFTLTISSLQPEDFATYYCQQSYTTPPTFGQGTKVEIKR
notes: HC linker short, LC linker short; also called DVD513H; DVD513L
[1]
  EC50: 660 pM

B13: AB073 (anti-DLL4 (seq. 4) parent antibody) (antibody, human IgG1, V domains shown)
VH: EVQLQQSGPELEKPGASVKISCKASGYSFTGYNMNWVKQSNGKSLEWIGNIDPYFGGTNYNQKFKGKATLTVDKSSSTAYMQLKSLTSEDSAVYYCARNYDYDGGCFDYWGQGTTLTVSS
VL: QAVVTQESALTTSPGETVTLTCRSSTGAVTTSNYANWVQEKPDHLFTGLIGGTNNRAPGVPARFSGSLIGDKAALTITGAQTEDEAIYFCALWYSNHWVFGGGTKLTVLG
notes: also called AB073VH; AB073VL
[2]
  EC50: 220 pM and 210 pM

B14: DVD463 (bispecific antibody, human IgG1, kappa)
heavy: not shown
light: DIVMTQSPDSLAVSLGERATISCRASESVDNYGISFMKWFQQKPGQPPKLLIYAASNQGSGVPDRFSGSGSGTDFTLTISSLQAEDVAVYYCQQSKEVPWTFGGGTKVEIKRTVAAPSVFIFPPDIQMTQSPSSLSASVGDRVTITCRASQVIRRSLAWYQQKPGKAPKLLIYAASNLASGVPSRFSGSGSGTDFTLTISSLQPEDFATYYCQQSNTSPLTFGQGTKVEIKRTVAAPSVFIFPPSDEQLKSGTASVVCLLNNFYPREAKVQWKVDNALQSGNSQESVTEQDSKDSTYSLSSTLTLSKADYEKHKVYACEVTHQGLSSPVTKSFNRGEC
notes: DVD-Ig; outer AB069 (DLL4), inner AB071 (VEGF); HC short, LC long linker; also called DVD463H; DVD463L
[4]
  EC50: 500 pM
